Results published in patent US20200331991A1.

How the values were obtained:
[1] = molecular target: human α-CGRP G33A (25-37) (human); assay: Biacore 25 C, Fab over peptide on SA chip; KD ratio to parent 25-37
[2] = molecular target: human α-CGRP S34A (25-37) (human); assay: as above
[3] = molecular target: human α-CGRP V28A (25-37) (human); assay: as above
[4] = molecular target: human α-CGRP T30A (25-37) (human); assay: as above
[5] = molecular target: human α-CGRP V32A (25-37) (human); assay: as above
[6] = molecular target: human α-CGRP N31A (25-37) (human); assay: as above
[7] = molecular target: human α-CGRP F27A (25-37) (human); assay: as above
[8] = molecular target: human α-CGRP P29A (25-37) (human); assay: as above
[9] = molecular target: human α-CGRP K35A (19-37) (human); assay: Biacore 25 C, Fab over peptide on SA chip; KD ratio to parent 19-37

KD (mutant/parent) [1]: 1.3
KD (mutant/parent) [2]: 0.8
KD (mutant/parent) [3]: 0.8
KD (mutant/parent) [4]: 0.2
KD (mutant/parent) [5]: 0.9
KD (mutant/parent) [6]: 0.3
KD (mutant/parent) [7]: 0.8
KD (mutant/parent) [8]: 0.2
KD (mutant/parent) [9]: 0.3
Substance: anti-CGRP antibody 4901, Fab fragment
